From US20210113690A1 (BERLIN CHEMIE, published 2021)

Key:
[1] = target: T1, LY75 (DEC-205) on COLO205 cells (human, UniProt O60449 28-1722); experiment: competitive FACS on COLO205 cells; competitor anti-LY75-mAb-MCC-DM1
T1 construct: also called Lymphocyte antigen 75
Protocol: Cells were washed and resuspended in FACS buffer (PBS+2% FBS), neutralized with growth media, and counted. Cells were plated at 50,000 cells per well in a V Bottom 96-well plate. Cells were washed once with FACS buffer (PBS (Fisher, catalog #SH30028-03)+2% FBS). […] Test wells that required single or multiple staining steps were left in FACS buffer as appropriate to ensure the final staining was completed simultaneously for all conditions tested. Two wells were left unstained in FACS buffer as controls.
After the incubation with blocking antibody, cells were washed twice in FACS buffer. […] The cells were washed as above and resuspended in FACS buffer plus 1 μg/ml mouse anti-maytansine antibody and incubated in ice for 45 minutes. The cells were washed as above and resuspended in FACS buffer containing 2 ug/ml goat anti-mouse kappa RPE. The cells were incubated on ice for 45 minutes then washed as above. The cells were resuspended in FACS buffer at 200 μl per well. Mean fluorescence intensity of each sample was determined using a Guava EasyCyte Plus HT Flow Cytometer (96 well plate formats) and the raw data was analyzed using the Guava Cytosoft.

QYKGHCYK = target: T2, QYKGHCYK; experiment: peptide microarray, 8mer on the chip, 1 µg/mL LY75_A1, anti-human IgG Alexa 647
T2 construct: LY75 8mer on the microarray
T2 peptide: QYKGHCYK
Protocol: (§1) The peptide microarray analysis was performed by LC Sciences, Houston Tex., in brief the method comprised the following steps: —Contiguous 8mer peptides of LY75 protein having […] spanning residues 216 to 1666 of the full length LY75 protein were synthesized and immobilized on a microarray chip. The chip comprised three panels such that the experiment was performed in triplicate. […] The binding assay was performed under the following conditions:—
(§2) The microarray comprising the contiguous peptides in triplicate was washed with 1 mL of binding buffer at 4° C. for 20 min. […] The array was again washed with 0.5 mL of washing buffer at 4° C. for 30 min then incubated with 25 ng/mL anti-human IgG Alexa 647 conjugate in binding buffer (pH 7.0) at 4° C. for 1 hr. The array was again washed with 0.5 mL of washing buffer at 4° C. for 30 min.

TYSNFHPL = target: T3, TYSNFHPL; experiment: as above
T3 construct: LY75 8mer on the microarray
T3 peptide: TYSNFHPL
Protocol: as §1, §2

TSCSERHF = target: T4, TSCSERHF; experiment: as above
T4 construct: LY75 8mer on the microarray
T4 peptide: TSCSERHF
Protocol: as §1, §2

DHFTYSRY = target: T5, DHFTYSRY; experiment: as above
T5 construct: LY75 8mer on the microarray
T5 peptide: DHFTYSRY
Protocol: as §1, §2

GSRWIQYK = target: T6, GSRWIQYK; experiment: as above
T6 construct: LY75 8mer on the microarray
T6 peptide: GSRWIQYK
Protocol: as §1, §2

SRYPWHRF = target: T7, SRYPWHRF; experiment: as above
T7 construct: LY75 8mer on the microarray
T7 peptide: SRYPWHRF
Protocol: as §1, §2

SERHFVSL = target: T8, SERHFVSL; experiment: as above
T8 construct: LY75 8mer on the microarray
T8 peptide: SERHFVSL
Protocol: as §1, §2

AVYFHQHS = target: T9, AVYFHQHS; experiment: as above
T9 construct: LY75 8mer on the microarray
T9 peptide: AVYFHQHS
Protocol: as §1, §2

LSRLTYSS = target: T10, LSRLTYSS; experiment: as above
T10 construct: LY75 8mer on the microarray
T10 peptide: LSRLTYSS
Protocol: as §1, §2

DDHFTYSR = target: T11, DDHFTYSR; experiment: as above
T11 construct: LY75 8mer on the microarray
T11 peptide: DDHFTYSR
Protocol: as §1, §2

SCYKVFHA = target: T12, SCYKVFHA; experiment: as above
T12 construct: LY75 8mer on the microarray
T12 peptide: SCYKVFHA
Protocol: as §1, §2

YKGHCYKS = target: T13, YKGHCYKS; experiment: as above
T13 construct: LY75 8mer on the microarray
T13 peptide: YKGHCYKS
Protocol: as §1, §2

NGSRWIQY = target: T14, NGSRWIQY; experiment: as above
T14 construct: LY75 8mer on the microarray
T14 peptide: NGSRWIQY
Protocol: as §1, §2

FTSCSERH = target: T15, FTSCSERH; experiment: as above
T15 construct: LY75 8mer on the microarray
T15 peptide: FTSCSERH
Protocol: as §1, §2

SCSERHFV = target: T16, SCSERHFV; experiment: as above
T16 construct: LY75 8mer on the microarray
T16 peptide: SCSERHFV
Protocol: as §1, §2

EVKDCRSF = target: T17, EVKDCRSF; experiment: as above
T17 construct: LY75 8mer on the microarray
T17 peptide: EVKDCRSF
Protocol: as §1, §2

ELTYSNFH = target: T18, ELTYSNFH; experiment: as above
T18 construct: LY75 8mer on the microarray
T18 peptide: ELTYSNFH
Protocol: as §1, §2

PWRRGWHF = target: T19, PWRRGWHF; experiment: as above
T19 construct: LY75 8mer on the microarray
T19 peptide: PWRRGWHF
Protocol: as §1, §2

LNNLYKII = target: T20, LNNLYKII; experiment: as above
T20 construct: LY75 8mer on the microarray
T20 peptide: LNNLYKII
Protocol: as §1, §2

WHRFPVTF = target: T21, WHRFPVTF; experiment: as above
T21 construct: LY75 8mer on the microarray
T21 peptide: WHRFPVTF
Protocol: as §1, §2

VSLCQKYS = target: T22, VSLCQKYS; experiment: as above
T22 construct: LY75 8mer on the microarray
T22 peptide: VSLCQKYS
Protocol: as §1, §2

PWHRFPVT = target: T23, PWHRFPVT; experiment: as above
T23 construct: LY75 8mer on the microarray
T23 peptide: PWHRFPVT
Protocol: as §1, §2

YDDREFIY = target: T24, YDDREFIY; experiment: as above
T24 construct: LY75 8mer on the microarray; aa 769-776 counted from Region 3 (aa761-780)
T24 peptide: YDDREFIY
Protocol: as §1, §2

HRFPVTFG = target: T25, HRFPVTFG; experiment: as above
T25 construct: LY75 8mer on the microarray
T25 peptide: HRFPVTFG
Protocol: as §1, §2

HFTYSRYP = target: T26, HFTYSRYP; experiment: as above
T26 construct: LY75 8mer on the microarray
T26 peptide: HFTYSRYP
Protocol: as §1, §2

[2] = target: Contiguous 8mer peptides of LY75 protein spanning residues 216 to 1666 of the full length LY75 protein (peptide microarray); experiment: peptide microarray, 1 ug/mL LY75_A1, scanned at 635 nm; cut off for non-specific binding 3000

T1 sequence (O60449 28-1722 limits assumed): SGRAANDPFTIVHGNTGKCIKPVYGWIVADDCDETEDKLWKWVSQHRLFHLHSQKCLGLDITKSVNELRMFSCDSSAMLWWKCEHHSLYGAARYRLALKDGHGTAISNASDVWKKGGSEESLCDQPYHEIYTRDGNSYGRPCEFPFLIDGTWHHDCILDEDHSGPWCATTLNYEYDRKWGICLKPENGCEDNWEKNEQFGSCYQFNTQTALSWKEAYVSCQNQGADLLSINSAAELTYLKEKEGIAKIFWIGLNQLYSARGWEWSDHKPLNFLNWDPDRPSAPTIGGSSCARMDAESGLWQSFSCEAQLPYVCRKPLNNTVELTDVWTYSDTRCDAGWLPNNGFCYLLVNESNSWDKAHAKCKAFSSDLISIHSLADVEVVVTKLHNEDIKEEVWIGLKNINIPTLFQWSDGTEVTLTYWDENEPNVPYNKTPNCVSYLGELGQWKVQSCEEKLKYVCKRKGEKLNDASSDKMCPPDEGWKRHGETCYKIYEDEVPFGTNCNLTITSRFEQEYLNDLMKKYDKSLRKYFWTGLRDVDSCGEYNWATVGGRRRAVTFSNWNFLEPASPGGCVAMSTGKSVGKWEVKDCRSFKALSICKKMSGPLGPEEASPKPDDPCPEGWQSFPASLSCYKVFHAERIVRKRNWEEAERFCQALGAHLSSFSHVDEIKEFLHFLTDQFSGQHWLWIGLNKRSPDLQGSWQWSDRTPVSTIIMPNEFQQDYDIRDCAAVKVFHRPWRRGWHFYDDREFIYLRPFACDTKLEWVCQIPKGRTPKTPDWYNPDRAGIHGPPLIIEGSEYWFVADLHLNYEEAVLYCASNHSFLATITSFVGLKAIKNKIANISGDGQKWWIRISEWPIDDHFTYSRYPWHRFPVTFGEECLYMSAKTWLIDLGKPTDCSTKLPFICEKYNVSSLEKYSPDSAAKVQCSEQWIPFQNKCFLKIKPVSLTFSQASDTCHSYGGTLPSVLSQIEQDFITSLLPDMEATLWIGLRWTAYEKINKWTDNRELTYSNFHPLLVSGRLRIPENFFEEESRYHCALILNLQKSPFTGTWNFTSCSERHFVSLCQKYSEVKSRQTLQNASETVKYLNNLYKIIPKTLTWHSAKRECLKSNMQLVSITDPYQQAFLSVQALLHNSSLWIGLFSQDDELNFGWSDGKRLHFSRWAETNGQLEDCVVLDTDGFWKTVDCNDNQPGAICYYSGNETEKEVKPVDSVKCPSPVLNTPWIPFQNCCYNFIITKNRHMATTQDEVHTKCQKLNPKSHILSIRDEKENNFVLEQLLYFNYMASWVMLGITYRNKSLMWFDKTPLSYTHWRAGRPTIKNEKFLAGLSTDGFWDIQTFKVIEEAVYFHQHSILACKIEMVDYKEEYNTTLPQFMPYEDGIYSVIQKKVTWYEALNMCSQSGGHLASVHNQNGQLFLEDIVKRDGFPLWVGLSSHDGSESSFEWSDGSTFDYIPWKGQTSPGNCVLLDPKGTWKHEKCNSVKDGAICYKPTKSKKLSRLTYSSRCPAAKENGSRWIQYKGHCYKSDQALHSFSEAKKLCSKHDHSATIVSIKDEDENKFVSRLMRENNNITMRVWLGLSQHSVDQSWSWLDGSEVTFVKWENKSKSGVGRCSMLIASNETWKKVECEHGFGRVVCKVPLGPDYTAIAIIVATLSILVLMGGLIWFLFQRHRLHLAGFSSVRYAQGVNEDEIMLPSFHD

B1: LY75_A1 monoclonal antibody (antibody, human IgG1, kappa, V domains shown)
VH: EVQLVESGGGLVKPGGSLRLSCAASGFTYSNAWMSWVRQAPGKGLEWVGRIKSKTDGGTTDYAAPVQGRFTISRDDSKNTLYLQMNSLKTEDTAVYYCTIFGVVSFDYWGQGTLVTVSS
VL: DVQMTQSPSSLSASVGDRVTITCRASQSISDYLSWYQQRPGKAPNLLIYAASNLKTGVPSRFSGSGSGTDFTLTISTLQPEDFATYYCQQSYRSPWTFGQGTKVEIKR
notes: also called LY75A1 antibody; antibody LY75_A1
[1]
  binding result: binds
QYKGHCYK
  binding result: binds
TYSNFHPL
  binding result: binds
TSCSERHF
  binding result: binds
DHFTYSRY
  binding result: binds
GSRWIQYK
  binding result: binds
SRYPWHRF
  binding result: binds
SERHFVSL
  binding result: binds
AVYFHQHS
  binding result: binds
LSRLTYSS
  binding result: binds
DDHFTYSR
  binding result: binds
SCYKVFHA
  binding result: binds
YKGHCYKS
  binding result: binds
NGSRWIQY
  binding result: binds
FTSCSERH
  binding result: binds
SCSERHFV
  binding result: binds
EVKDCRSF
  binding result: binds
ELTYSNFH
  binding result: binds
PWRRGWHF
  binding result: binds
LNNLYKII
  binding result: binds
WHRFPVTF
  binding result: binds
VSLCQKYS
  binding result: binds
PWHRFPVT
  binding result: binds
YDDREFIY
  binding result: binds
HRFPVTFG
  binding result: binds
HFTYSRYP
  binding result: binds
[2]
  average signal intensity of all spots (signal intensity (scale 1-65535)): 885
  maximum signal intensity (signal intensity (scale 1-65535)): 25000
